Assay results as given in patent US20140241987A1.

How the values were obtained:
[1] = biological target: α-synuclein fibrils (human) (UniProt P37840); experiment: SPR, BIAcore X100, fibrils immobilised on CM5, mAb injected
[2] = biological target: α-synuclein fibrils (human) (UniProt P37840); experiment: inhibition ELISA, fibrils against monomers

Kd [1]	koff [1]	kon [1]	Fold Affinity to Fibrils [2]	Substance
0.138 nM	0.000996 s⁻¹	7.24e+06 M⁻¹ s⁻¹	6930 fold	Syn-O4 (antibody)
0.171 nM	0.000379 s⁻¹	2.22e+06 M⁻¹ s⁻¹	11100 fold	Syn-O3 (antibody)
0.016 nM	9.36e-05 s⁻¹	5.86e+06 M⁻¹ s⁻¹	12700 fold	Syn-O1 (antibody)
0.0969 nM	0.00127 s⁻¹	1.31e+07 M⁻¹ s⁻¹	27300 fold	Syn-O2 (antibody)
